Columns and labels:
Aurora A [1] = biological target: Aurora A (UniProt O14965); test: Myc co-IP, Aurora A immunoblot; settings: reference: wild type Bora-Myc; sites S59
Aurora A [2] = biological target: Aurora A (UniProt O14965); test: GFP co-IP, Aurora A immunoblot; settings: reference: wild type Bora-GFP; sites S59
Aurora A [3] = biological target: Aurora A (UniProt O14965); test: co-IP of Bora-GFP, Aurora A immunoblot; settings: reference: wild type Bora-GFP; sites S59
Aurora A [4] = biological target: Aurora A (UniProt O14965); test: GST-Aurora A pull-down of MBP-Bora; settings: reference: unphosphorylated MBP-Bora; sites S59

Substance: Bora (from UniProt Q6PGQ7) S59A
- binding against the reference (Aurora A [1]): weaker
- binding against the reference (Aurora A [2]): weaker
- binding against the reference (Aurora A [3]): weaker

Substance: Bora (from UniProt Q6PGQ7) MBP-Bora-S59ph (genetic code expansion)
- binding against the reference (Aurora A [4]): stronger

Reference: article PMC12375101
